From patent US8349801B2, “Peptide ligands for G-protein coupled receptors” (priority 2006, dated 2013)
No end group written: not given here.

Legend:
Mas receptor = biological target: T1, Mas receptor (Homo sapiens, UniProt P04201); assay: Calcium flux in CHO-K1 cells co-transfected with Mas receptor and Gα16; format: cell-based; details: for ability to induce calcium flux, P33 monomer, dimer and derivatives compared: 0.1, 1, 10, 100, 1000 and 10000 nM; for EC50: doses 10-3000 nM, highest response not reached; for ability to induce calcium flux, P61-related peptides compared: dose response
T1 construct: expressed in transfected cells; host or cells: CHO-K1 (ATCC-CCL-61), transient co-transfection
T1 sequence (P04201 1-325): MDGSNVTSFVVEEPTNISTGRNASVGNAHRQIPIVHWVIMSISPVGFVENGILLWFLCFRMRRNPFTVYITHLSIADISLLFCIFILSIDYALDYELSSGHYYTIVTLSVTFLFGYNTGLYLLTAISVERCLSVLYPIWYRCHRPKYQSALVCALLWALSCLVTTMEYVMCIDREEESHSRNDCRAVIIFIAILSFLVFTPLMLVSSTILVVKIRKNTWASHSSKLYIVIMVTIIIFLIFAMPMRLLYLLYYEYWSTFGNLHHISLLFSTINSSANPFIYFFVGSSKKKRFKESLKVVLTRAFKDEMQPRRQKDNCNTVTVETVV
Protocol: (§1) The assay was carried out in CHO cells were transiently transfected with the GPCR of choice, by utilizing the promiscuous Gα16 to divert signaling to the Gq pathway, thus enabling readout of GPCR activation by testing for Calcium flux as described by Liu et al 2003 (Biomol Screen 8, 39-49).
(§2) All the peptides thus obtained were tested for their ability to change calcium flux in CHO—K1 cells (ATCC-CCL-61) transiently co-transfected with an expression vector containing the GPCR of choice and expression vector containing the Gα16 encoding cDNA. Expression constructs containing cDNA clones for MrgX1, MrgX2, Mas or FPRL1 were commercially obtained in one of the following expression vectors: pcDNA3.1, pCMV6, or MO2.
(§3) Transient transfections were performed using CHO—K1 cells as host cells. Cells (12 million) were plated into T75 flasks on the day preceding transfection. Cells were transfected with the appropriate GPCR expression vector and with a vector expressing Gα16 using a lipid-based reagent, MTI, according to the manufacturer's recommendation. Cells were transfected for 5 hours, then re-plated into 96-well dishes (60,000 cells per well) and grown overnight.
(§4) On the day of the experiment, cells were loaded with Fluo4-NW (Invitrogen) according to the manufacturer's recommendation. Plates were loaded into a FlexStation™ (Molecular Devices) plate reader and fluorescence was monitored. Seventeen seconds following initiation of reading, cells were stimulated with the indicated agonist/compound at final concentration of 1 μM. Each 96 well plate contained cells transfected with one GPCR expression vector and each of the examined peptides was tested in triplicate.
(§5) We defined a hit as a peptide which elicited a clear and distinct increase in intracellular calcium that is clearly visible and statistically significant upon examination of the calcium trace for at least two repeats. The criterion for statistical significance was a p-value lower than 0.001 in a t-test comparing the levels of calcium before and after peptide addition.
(§6) Based on dose response experiments, EC50 best fit values were calculated by non-linear regression of sigmoidal dose-response curves, using Prism version 4 (GraphPad Software Inc., San Diego, Calif.). The formulae for the sigmoidal dose-response curves was defined as Y=Bottom+(Top−Bottom)/(1+10^ (LogEC50−X)*HillSlope))
The ability of Peptides to change calcium flux was examined in CHO—K1 cells co-transfected with Mas receptor and Gα16.

FPRL1 = biological target: T2, FPRL1 (Homo sapiens, UniProt P25090); assay: Calcium flux in CHO-K1 cells co-transfected with FPRL1 and Gα16; format: cell-based; set-up: expressed in transfected cells; host or cells: CHO-K1 (ATCC-CCL-61), transient co-transfection; details: for ability to induce calcium flux, P33-derived peptides: 0.1, 1, 10, 100, 1000, 10000 nM; for calcium flux, P58 and derivatives: dose response
T2 sequence (P25090 1-351): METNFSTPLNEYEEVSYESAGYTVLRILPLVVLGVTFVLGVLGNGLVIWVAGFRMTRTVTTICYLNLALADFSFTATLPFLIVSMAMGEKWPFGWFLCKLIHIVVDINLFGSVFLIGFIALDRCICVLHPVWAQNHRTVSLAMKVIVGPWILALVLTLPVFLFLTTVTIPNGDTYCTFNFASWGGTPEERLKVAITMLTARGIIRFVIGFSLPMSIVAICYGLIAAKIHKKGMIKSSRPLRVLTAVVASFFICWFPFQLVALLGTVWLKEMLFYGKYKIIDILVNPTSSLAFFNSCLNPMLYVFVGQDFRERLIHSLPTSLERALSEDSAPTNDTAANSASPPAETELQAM
Protocol: as §1, §2, §3, §4, §5, §6
The ability of Peptides to change calcium flux was examined in CHO—K1 cells co-transfected with FPRL1 and Gal 6.

[1] = test system: aortic rings from Wistar rat; assay: Vasorelaxant activity in phenylephrine pre-contracted aortic rings; details: for vasodilator effect in the presence of L-NAME: 100 μM L-NAME, NO synthase inhibitor; for vasodilator effect in the absence of functional endothelium: endothelium-denuded vessels; for Maximal values for the relaxant effect (Emax): mean±SEM
Text: Male Wistar rats of the age of 13-14 weeks (body weight: 250 to 300 g) were used. The rats were exposed to light-dark cycle of 12 hs (day—06:00 to 18:00; night—18:00 to 06:00) controlled by timer. Rats were killed by decapitation and exsanguination and tissues were rapidly removed.
Rings (3-4 mm) from the descending thoracic aorta, free of adipose and connective tissue, were set up in gassed (95% O2 and 5% CO2) Krebs-Henseleit solution (mmol/L): NaCl 110.8, KCl 5.9, NaHCO3 25.0, MgSO4 1.07, CaCl2 2.49, NaH2PO4 2.33 and glucose 11.51, at 37° C., under a tension of 1.0 g, for 1 hour to equilibrate. The presence of functional endothelium was assessed by the ability of Acetylcholine (1 μM) to induce more than 70% relaxation of vessels pre-contracted with phenylephrine (0.3 μM) (Lemos et al., 2005). When necessary, the endothelium was removed by rubbing the intimal surface with a wooden stick. Mechanical activity, recorded isometrically by a force transducer (Panlab, model number TR1210, Spain), was fed to an amplifier-recorder (Powerlab 4/20, ADInstruments, Inc.) and to a personal computer equipped with an analogue-to-digital converter board (AD16JR; World Precision Instruments, Inc.), using CVMS data acquisition/recording software (World Precision Instruments, Inc.).
The vasorelaxant activity of peptides —P61_S (SEQ ID NO:10), P61 (SEQ ID NO.9)-dimer (P61_D), P33_V (SEQ ID NO:7) and P33 (SEQ ID NO:6)-dimer (P33_D) were measured in vessels (N=5-8) with or without functional endothelium pre-contracted to the same tension level (approximately 1.5 g of tension) induced by submaximal concentrations of phenylephrine (0.01 μM). For comparison, the effect of Ang-(1-7) was also tested (N=4)
P61_S (SEQ ID NO:10), P61 (SEQ ID NO9)-dimer (P61_D), P33_V (SEQ ID NO:7) or P33 (SEQ ID NO:6)-dimer (P33_D) were added in increasing cumulative concentrations (0.0001 to 1 μM) once the response to phenylephrine had stabilized (FIG. 28). In order to verify the participation of endothelium-derived products in the relaxant effect of peptides, experiments were performed in the presence of 100 μM N′-Nitro-L-Arginine Methyl Ester-[L-NAME]—a nonselective inhibitor of nitric oxide synthase. In experiments performed in the presence of L-NAME, vessels were pre-contracted with 0.03 μM of phenylephrine, to achieve the same tension level as the others. L-NAME was added to the bath 20 min prior to the addition of phenylephrine.
Results are presented as mean±SEM. Two-way analysis of variance (ANOVA) with Bonferroni multiple comparison post-test was used to compare concentration response curves obtained in aortic rings. The vasodilator effect of P61_S (SEQ ID NO:10), P61 (SEQ ID N09)-dimer (P61_D), P33_V (SEQ ID NO:7), P33 (SEQ ID NO:6)-dimer (P33_D) and Ang-(1-7) were expressed as percentage decrease in maximal contraction induced by phenylephrine. All statistical analyses were considered significant when p<0.05.

[2] = vessels with endothelium, 0.0001 to 1 μM cumulative

SMCHRWSRAVLFPAAHRP [Peptide P33_mono]
ability to induce calcium flux, P33 monomer, dimer and derivatives compared (Mas receptor): equally potent | ability to induce calcium flux, P33-derived peptides (FPRL1): similarly potent

TIPMFVPESTSTLQKFTSWFM-amide (TIPMFVPESTSTLQKFTSWFM-NH2; listed as Homo sapiens) [P58—10]
calcium flux, P58 and derivatives (FPRL1): elicited calcium flux

SMVHRWSRAVLFPAAHRP [Peptide P33_V, SMVHRWSRAVLFPAAHRP]
EC50 (Mas receptor): ≥ 1000 nM

HRWSRAVLFPAAHRP (listed as Homo sapiens) [P33—9]
ability to induce calcium flux, P33 monomer, dimer and derivatives compared (Mas receptor): induced calcium flux, albeit at a somewhat lower degree compared to P33_V | ability to induce calcium flux, P33-derived peptides (FPRL1): failed to induce calcium flux

WSRAVLFPAAHRP (listed as Homo sapiens) [P33—10]
ability to induce calcium flux, P33 monomer, dimer and derivatives compared (Mas receptor): induced calcium flux, albeit at a somewhat lower degree compared to P33_V | ability to induce calcium flux, P33-derived peptides (FPRL1): failed to induce calcium flux

TIPMFVPESTSTLQ (listed as Homo sapiens) [P58—12]
calcium flux, P58 and derivatives (FPRL1): did not induce calcium flux

FLGYSIYLNRKRRGDPAFKRRLRD [Peptide P61_S]
EC50 (Mas receptor): ≥ 500 nM

TIPMFVPESTSKLQ (listed as Homo sapiens) [P58—7]
calcium flux, P58 and derivatives (FPRL1): did not induce calcium flux

IYLNRKRRGDPAFKRRLRD (listed as Homo sapiens) [P61—4]
ability to induce calcium flux, P61-related peptides compared (Mas receptor): somewhat weaker

AVLFPAAHRP (listed as Homo sapiens) [P33—5]
ability to induce calcium flux, P33 monomer, dimer and derivatives compared (Mas receptor): no activity | ability to induce calcium flux, P33-derived peptides (FPRL1): failed to induce calcium flux

Angiotensin 1-7 [Ang-(1-7), reference compound]
Ca response (Mas receptor; dose response experiment, data not shown): did not induce Ca response | vasodilator effect in the presence of L-NAME [1]: completely inhibited | vasodilator effect in the absence of functional endothelium [1]: abolished | Maximal values for the relaxant effect (Emax) [1, 2]: 15.64±1.91% | Maximal values for the relaxant effect (Emax) ([1]; vessels without endothelium): 2.82±3.11%

TIPMFVPESTS (listed as Homo sapiens) [P58—6]
calcium flux, P58 and derivatives (FPRL1): did not induce calcium flux

RWSRAVLFPAAHRP (listed as Homo sapiens) [P33—8]
ability to induce calcium flux, P33 monomer, dimer and derivatives compared (Mas receptor): induced calcium flux, albeit at a somewhat lower degree compared to P33_V | ability to induce calcium flux, P33-derived peptides (FPRL1): failed to induce calcium flux

SMCHRWSRAVLFPAAHRP [P33_dimer] (also: dimer via cysteine; listed as Homo sapiens) [Peptide P33_dimer]
ability to induce calcium flux, P33 monomer, dimer and derivatives compared (Mas receptor): superior to the monomeric peptides | vasodilator effect in the presence of L-NAME [1]: completely inhibited | vasodilator effect in the absence of functional endothelium [1]: completely inhibited | Maximal values for the relaxant effect (Emax) [1, 2]: 17.78±3.43% | ability to induce calcium flux, P33-derived peptides (FPRL1): inactive

FAFLGYSIYLNRKRRGDPAF (listed as Homo sapiens) [P61—11S]
ability to induce calcium flux, P61-related peptides compared (Mas receptor): as potent as P61_S
